{"source": "patent US20160137713A1", "binders": {"B1": {"name": "A12-E01 (scFv, V domains shown, not shown: small tags and cut ends)", "VH": "EVQLVESGGGLVQPGRSLRLSCAASGFTFDEYGMHWVRQAPGKGLEWVSGVSWNSGSIAYADSVRGRFTISRDNAKNSLYLQMNSLRAEDTALYYCAKSRSMDVWGQGTTVTVSS", "VL": "QSALTQPASVSGSPGQSITISCTGSSSDVGGYNYVSWYQQHPGKAPKLMIYDVTKRPSGVSNRFSGSKSGNTASLTISGLQAEDEADYYGSYSNNNFYVFGTGTKVTVLG", "modifications": "linker not given"}, "B2": {"name": "A12-H04 (scFv, V domains shown, not shown: small tags and cut ends)", "VH": "B1 VH with S99G, S101L, M102L", "VL": "B1 VL with S91A, N95T", "modifications": "linker not given"}, "B3": {"name": "A12-E05 (scFv, V domains shown, not shown: small tags and cut ends)", "VH": "B1 VH with S99G, S101I, M102L", "VL": "B1 VL with S93N, N95S, N96T", "modifications": "scFv linker not given"}, "B4": {"name": "A12-E04 (scFv, V domains shown, not shown: small tags and cut ends)", "VH": "B1 VH with S99G, S101L, M102F", "VL": "B1 VL with N95S", "modifications": "linker not given"}}, "note": "Substitutions are numbered along the chain they refer to.", "data": [{"target": "soluble human FcRn (human) (UniProt P55899)", "sequence (P55899 24-297, chain 1 of 2)": "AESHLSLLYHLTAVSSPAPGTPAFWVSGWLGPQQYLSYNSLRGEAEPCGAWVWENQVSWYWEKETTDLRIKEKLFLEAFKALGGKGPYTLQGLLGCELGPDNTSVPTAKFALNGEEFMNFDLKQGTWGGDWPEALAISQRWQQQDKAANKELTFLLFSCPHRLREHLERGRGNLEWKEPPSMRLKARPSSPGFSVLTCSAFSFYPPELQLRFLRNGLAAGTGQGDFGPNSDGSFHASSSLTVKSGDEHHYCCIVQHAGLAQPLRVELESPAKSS", "sequence (P61769 21-119, chain 2 of 2, further chain)": "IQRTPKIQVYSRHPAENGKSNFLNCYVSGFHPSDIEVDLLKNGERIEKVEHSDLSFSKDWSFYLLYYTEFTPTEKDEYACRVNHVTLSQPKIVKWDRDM", "experiment": "ELISA on coated shFcRn, scFv 100 ng/mL, pH 7.4", "units": {"ELISA (OD450)": "OD450"}, "values": [{"binder": "B1", "ELISA (OD450)": 1.05}, {"binder": "B2", "ELISA (OD450)": 1.57}, {"binder": "B3", "ELISA (OD450)": 1.8}, {"binder": "B4", "ELISA (OD450)": 1.29}]}, {"target": "soluble human FcRn (human) (UniProt P55899)", "experiment": "ELISA on coated shFcRn, scFv 100 ng/mL, pH 6.0", "units": {"ELISA (OD450)": "OD450"}, "values": [{"binder": "B1", "ELISA (OD450)": 1.71}, {"binder": "B2", "ELISA (OD450)": 2.26}, {"binder": "B3", "ELISA (OD450)": 2.06}, {"binder": "B4", "ELISA (OD450)": 1.59}]}]}
